Patent US6420345 (dated 2002)
Blank lines part the entries; values can stand above or below the binder they belong to.

Key:
Test in all cases: in vitro kinase assay
CDK4/cyclin D1 complex = CDK4/cyclin D1 complex (UniProt P11802 1-303; P24385 1-295)
CDK2/cyclin E complex = CDK2/cyclin E complex (UniProt P24941 1-298; P24864 16-410)
CDC2/cyclin B complex = CDC2/cyclin B complex (UniProt P06493 1-297; P14635 1-433)
CDC2/cyclin B complex, sequence (P06493 whole entry, chain 1 of 2): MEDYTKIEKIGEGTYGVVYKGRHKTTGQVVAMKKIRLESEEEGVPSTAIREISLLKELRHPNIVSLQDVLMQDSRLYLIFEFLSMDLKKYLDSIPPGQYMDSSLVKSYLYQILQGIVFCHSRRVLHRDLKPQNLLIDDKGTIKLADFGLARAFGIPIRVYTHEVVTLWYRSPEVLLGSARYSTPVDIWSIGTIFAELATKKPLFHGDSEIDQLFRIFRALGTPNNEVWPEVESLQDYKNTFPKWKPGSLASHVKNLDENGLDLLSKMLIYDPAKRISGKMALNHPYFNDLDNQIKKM
CDC2/cyclin B complex, sequence (P14635 whole entry, chain 2 of 2): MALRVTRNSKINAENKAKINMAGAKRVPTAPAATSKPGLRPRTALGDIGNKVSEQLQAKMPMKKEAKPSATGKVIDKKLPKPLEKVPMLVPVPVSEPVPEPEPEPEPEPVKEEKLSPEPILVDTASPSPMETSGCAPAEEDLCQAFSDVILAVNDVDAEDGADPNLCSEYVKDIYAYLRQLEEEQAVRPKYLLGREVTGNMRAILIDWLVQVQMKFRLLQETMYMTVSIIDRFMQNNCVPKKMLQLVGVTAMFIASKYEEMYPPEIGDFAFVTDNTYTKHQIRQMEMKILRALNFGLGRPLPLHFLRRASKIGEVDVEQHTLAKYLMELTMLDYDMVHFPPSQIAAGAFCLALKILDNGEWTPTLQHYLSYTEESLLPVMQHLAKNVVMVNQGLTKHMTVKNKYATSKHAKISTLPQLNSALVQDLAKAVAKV

CDK4/cyclin D1 complex, sequence (P11802 whole entry, chain 1 of 2): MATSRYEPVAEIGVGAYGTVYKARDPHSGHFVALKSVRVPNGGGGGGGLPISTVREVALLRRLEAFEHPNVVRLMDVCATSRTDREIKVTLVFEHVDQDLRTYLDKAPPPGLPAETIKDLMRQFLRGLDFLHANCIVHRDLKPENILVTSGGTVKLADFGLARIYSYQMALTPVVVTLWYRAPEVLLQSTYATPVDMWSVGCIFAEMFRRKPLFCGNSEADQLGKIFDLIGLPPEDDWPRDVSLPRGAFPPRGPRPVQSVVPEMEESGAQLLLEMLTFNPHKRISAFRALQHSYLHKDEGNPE
CDK4/cyclin D1 complex, sequence (P24385 whole entry, chain 2 of 2): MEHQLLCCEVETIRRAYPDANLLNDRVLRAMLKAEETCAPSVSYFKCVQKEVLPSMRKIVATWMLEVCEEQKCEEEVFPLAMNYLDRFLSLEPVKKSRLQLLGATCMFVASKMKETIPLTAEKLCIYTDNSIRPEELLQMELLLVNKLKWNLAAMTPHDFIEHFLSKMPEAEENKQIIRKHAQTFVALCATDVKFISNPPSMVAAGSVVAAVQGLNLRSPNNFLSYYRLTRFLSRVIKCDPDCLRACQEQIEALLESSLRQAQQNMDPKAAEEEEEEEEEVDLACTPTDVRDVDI

IC50 (CDK4/cyclin D1 complex): 47 nM
IC50 (CDK2/cyclin E complex): 3.5 nM
IC50 (CDC2/cyclin B complex): 18 nM
B1: W9 (other)
chain: MGYPYDVPDYAKPSACRNLFGPVDHEELTRDLEKHCRDMEEASQRKWNFDFQNHKPLEGKYEWQEVEKGSLPEFYYRPPRVEDPAAGSSMEPSADWLATAAARGRVEEVRALLEAGALPNAPNSYGRRPIQVMMMGSARVAELLLLHGAEPNCADPATLTRPVHDAAREGFLDTLVVLHRAGARLDVRDAWGRLPVDLAEELGHRDVARYLRAAAGGTRGSNHARIDAAEGPSDIPD

IC50 (CDK4/cyclin D1 complex): 100 nM
IC50 (CDK2/cyclin E complex): > 1000 nM
IC50 (CDC2/cyclin B complex): > 1000 nM
B2: human p16 (other)
chain: MEPAAGSSMEPSADWLATAAARGRVEEVRALLEAGALPNAPNSYGRRPIQVMMMGSARVAELLLLHGAEPNCADPATLTRPVHDAAREGFLDTLVVLHRAGARLDVRDAWGRLPVDLAEELGHRDVARYLRAAAGGTRGSNHARIDAAEGPSDIPD

IC50 (CDK4/cyclin D1 complex): 38 nM
IC50 (CDK2/cyclin E complex): 3 nM
IC50 (CDC2/cyclin B complex): 17 nM
B3: W10 (other)
chain: MGYPYDVPDYAKPSACRNLFGPVDHEELTRDLEKHCRDMEEASQRKWNFDFQNHKPLEGKYEWQEVEKGSLPEFYYRPPRGGGGSGGGGSGGGGSVEDPAAGSSMEPSADWLATAAARGRVEEVRALLEAGALPNAPNSYGRRPIQVMMMGSARVAELLLLHGAEPNCADPATLTRPVHDAAREGFLDTLVVLHRAGARLDVRDAWGRLPVDLAEELGHRDVARYLRAAAGGTRGSNHARIDAAEGPSDIPD
